What was measured:
SOD1(A4V)-GFP = molecular target: T1, SOD1(A4V)-GFP (Homo sapiens, UniProt P00441, A5V); assay: Fluorescence of E. coli cells co-expressing SOD1(A4V)-GFP and cyclic peptide; format: cell-based; settings: co-expression of cyclic peptide; compared to random cyclic peptides from initial library
T1 construct: polyHis; expressed in transfected cells; host or cells: E. coli Origami 2(DE3) (BL21(DE3) for the FACS screen)
Description: Electrocompetent E. coli BL21(DE3) cells (Novagen, USA) carrying either the expression vector pETSOD1(A4V)-GFP, which produces SOD1(A4V)-GFP under control of the strong bacteriophage T7 promoter, or pETAβ42-GFP, which produces Aβ42-GFP under control of the T7 promoter, were co-transformed with the combined pSICLOPPS-NuX1X2X3-X5 vector library. Approximately 10^8 transformants carrying both the vector library and either pETSOD1(A4V)-GFP or pETAβ42-GFP vectors were harvested, pooled together, and grown in Luria-Bertani (LB) liquid medium containing either 0.005% (pETSOD1(A4F)-GFP) or 0.002% (pETAβ42-GFP) L-arabinose—the inducer of cyclic peptide production—at 37° C. with shaking. When the optical density at 600 nm (OD600) of the bacterial culture was about 0.5, 0.01 (pETSOD1(A4F)-GFP) or 0.1 (pETAβ42-GFP) mM isopropyl-β-D-thiogalactoside (IPTG) was added to the medium to induce overexpression of the reporter. […] The isolated cells were re-grown and screened for additional rounds in an identical manner until the desired enrichment in high-fluorescence clones was achieved.
For SOD1 or SOD1-GFP production, BL21(DE3) (Novagen, USA) or Origami 2(DE3) cells (Novagen, USA) were transformed with the corresponding SOD1- or SOD1-GFP-encoding vector, either with the appropriate pSICLOPPS vector or alone. […]
Bacterial cells corresponding to 1 mL culture with OD600=1 were harvested by centrifugation and re-suspended in 100 μL phosphate-buffered saline (PBS), transferred to a 96-well FLUOTRAC 200 plate (Greiner Bio One International, Austria), and their fluorescence was measured using a TECAN Safire II-Basic plate reader (Tecan, Austria). Excitation was set at 488 nm and emission was measured at 510 nm.

SOD1(A4V) = molecular target: T2, SOD1(A4V) (Homo sapiens, UniProt P00441, A5V); assay: Dynamic light scattering of SOD1(A4V) with cyclic peptide; format: biochemical; settings: room temperature, 60 d
T2 construct: polyHis; made in house; host or cells: E. coli Origami 2(DE3)
Description: SOD1 or mutants thereof were overexpressed from the appropriate pET-SOD1 or PASK-SOD1 vectors in E. coli Origami 2(DE3) cells in LB medium containing 50 μg/mL kanamycin (for pET-SOD1) or 100 μg/mL ampicillin (for pASK-SOD1), 200 μM CuCl2, and 200 μM ZnCl2 by the addition of 0.01 mM IPTG (for pET-SOD1) or 0.2 μg/mL anhydrotetracycline (aTc) (for pASK-SOD1), either at 37° C. for 2-3 h or at 18° C. for about 16 h. Origami 2(DE3) cells were utilized in order to provide an oxidizing cytoplasmic environment in order to promote correct formation of disulfide bonds, which are required for proper SOD1 folding and function. Under these conditions, bacterially produced SOD1 is produced in dimeric and enzymatically active form, while it simultaneously co-exists with misfolded, soluble and insoluble SOD1 oligomeric/aggregated species (FIG. 3C). Thus, the acquired protein is found in a state that resembles the conditions encountered in human cells under stressful or pathogenic conditions. The appearance of misfolded SOD1 oligomers/aggregates is enhanced with increasing incubation temperatures. […]
The sizes of the SOD1 particles were measured using a Zetasizer NanoZS90 (Malvern) instrument. […]

Aβ42 [1] = molecular target: T3, Aβ42 (Homo sapiens, UniProt P05067); assay: Circular dichroism of Aβ42 with cyclic peptide; format: biochemical; settings: 50 μM Aβ, 33° C., 30 d
T3 construct: one of the secondary products yields a 42-amino-acid-long peptide (Aβ42); purchased Eurogentec, Belgium; host or cells: chemical synthesis
Description: Synthetic Aβ40 and Aβ42 peptides were gently dissolved without vortexing in doubly deionized water to a final concentration of 100 μM. These solutions were then diluted by PBS addition (10 mM, pH 7.33) to achieve a final Aβ concentration of 50 μM.
Appropriate amounts of synthetic cyclic peptides were added to either 40 μM SOD1(A4V) or 50 μM Aβ solutions at the desired cyclic peptide:target protein molar ratio. SOD1(A4V) structural changes were monitored for 90 d at 25° C., under quiescent conditions. Aβ structural changes were monitored for 30 d at 33° C. under quiescent conditions. CD spectra in the range 190-260 nm were recorded on a JASCO J-715 spectropolarimeter (Jasco Co., Japan) using quartz cuvettes with 1 mm path length. Each reported spectrum is the average of three scans at a rate of 100 nm·min^−1 and a resolution of 0.5 nm.

Aβ42 [2] = molecular target: T3, Aβ42; assay: Thioflavin T dye-binding assay of Aβ42; format: biochemical; settings: 30-d aged CD solutions
Description: For Aβ ThT staining, 100 μL of the 30-d aged 50 μM CD solutions were diluted in PBS (10 mM, pH 7.33) to form a 25 μM Aβ solution with 200 μL final volume. 2.5 μL from a stock solution of ThT (Sigma-Aldrich, USA) in PBS (10 mM, pH 7.33) was added to the prepared Aβ solutions to achieve a final ThT concentration of 5 μM. The mixture was agitated adequately by pipetting and immediately thereafter, fluorescence was monitored with excitation at 440 nm (EM slit=2.5 nm, PMT Voltage 700 V, response 0.4 s) using a HITACHI F-2500 (Japan) spectrofluorometer.

T2 sequence (P00441 whole entry A5V): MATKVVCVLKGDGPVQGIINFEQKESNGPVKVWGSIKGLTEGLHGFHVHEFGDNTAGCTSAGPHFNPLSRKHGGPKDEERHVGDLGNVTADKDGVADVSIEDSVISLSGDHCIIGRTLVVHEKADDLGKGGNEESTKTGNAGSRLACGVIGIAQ
T1 sequence (P00441 whole entry A5V): as above

## cyclo-TWSVW (cyclic) [SOD1C5-4]
SOD1(A4V)-GFP
  SOD1(A4V)-GFP fluorescence of E. coli cells: highest levels of cellular SOD1(A4V)-GFP fluorescence
SOD1(A4V)
  size of oligomeric/aggregated SOD1(A4V) species (DLS): markedly smaller sizes
Aβ42 [1]
  effect on aggregation process of Aβ42 (CD): did not have any effect
Aβ42 [2]
  extent of Aβ42 amyloid fibril formation (ThT): did not have any effect

From patent US12559863B2, “Macrocyclic modulators of disease associated protein misfolding and aggregation” (RESQ BIOTECH, priority 2017, dated 2026)
